{
  "source": "the supplement of paper PMC7877785",
  "experiment": "self-splicing fitness, log relative to wild type (ln ratio); higher = more splicing; Tetrahymena group I intron in knt gene, E. coli kanamycin selection, DiMSum; sequences stand for … in CUCUCU…GGAGGGAAAAGUUAUCAGGCAUGCACCUGGUAGCUAGUCUUUAAACCAAUAGAUUGCAUCGGUUUAAAAGGCAAGACCGUCAAAUUGCGGGAAAGGGGUCAACAGCCGUUCAGUACCAAGUCUCAGGGGAAACUUUGAGAUGGCCUUGCAAAGGGUAUGGUAAUAAGCUGACGGACAUGGUCCUAACCACGCAGCCAAGUCCUAAGUCAACAGAUCUUCUGUUGAUAUGGAUGCAGUUCACAGACUAAAUGUCGGUCGGGGAAGAUGUAUUCUUCUCAUAAGAUAUAGUCGGACCUCUCCUUAAUGGGAGCUAGCGGAUGAAGUGAUGCAACACUGGAGCCGCUGGGAACUAAUUUGUAUGCGAAAGUAUAUUGAUUAGUUUUGGAGUACUCGUGGUCG",
  "in_short": "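Colonies from six replicate transformations of E. coli BL21(DE3) were pooled and amplicon-sequenced on an Illumina HiSeq 2500. The library placed an intron with all eight P1ex-region nucleotides randomised inside the knt kanamycin-resistance gene on pET-22b(+), and cells grew overnight at 37°C or 30°C on LB agar with or without 25 μg/mL kanamycin (plus 100 μg/mL carbenicillin, 50 μM IPTG, 0.2% rhamnose). Fitness is the DiMSum error-weighted combination of wild-type-normalised replicate fold changes, kanamycin versus none.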",
  "note": "± gives the uncertainty stated by the source.",
  "data": [
    {"sequence": "CCCAAGCAAUAUUACGGGAC", "values": [
      {"measurement": "self-splicing fitness (ln)", "setting": "30 °C", "value": "-4.01 ± 0.18"},
      {"measurement": "self-splicing fitness (ln)", "setting": "37 °C", "value": "-2.67 ± 0.15"}
    ]},
    {"sequence": "UAGGAGCAAUAUUACGUGGU", "values": [
      {"measurement": "self-splicing fitness (ln)", "setting": "30 °C", "value": "-3.87 ± 0.29"},
      {"measurement": "self-splicing fitness (ln)", "setting": "37 °C", "value": "-2.26 ± 0.24"}
    ]},
    {"sequence": "AACCAGCAAUAUUACGACAG", "values": [
      {"measurement": "self-splicing fitness (ln)", "setting": "30 °C", "value": "-2.65 ± 0.083"},
      {"measurement": "self-splicing fitness (ln)", "setting": "37 °C", "value": "-0.775 ± 0.099"}
    ]},
    {"sequence": "GGUAAGCAAUAUUACGUAAC", "values": [
      {"measurement": "self-splicing fitness (ln)", "setting": "30 °C", "value": "-1.86 ± 0.13"},
      {"measurement": "self-splicing fitness (ln)", "setting": "37 °C", "value": "-0.278 ± 0.15"}
    ]},
    {"sequence": "CGAGAGCAAUAUUACGUGUA", "values": [
      {"measurement": "self-splicing fitness (ln)", "setting": "30 °C", "value": "-3.34 ± 0.22"},
      {"measurement": "self-splicing fitness (ln)", "setting": "37 °C", "value": "-2.9 ± 0.23"}
    ]},
    {"sequence": "CUGAAGCAAUAUUACGGCUC", "values": [
      {"measurement": "self-splicing fitness (ln)", "setting": "30 °C", "value": "-2.75 ± 0.16"},
      {"measurement": "self-splicing fitness (ln)", "setting": "37 °C", "value": "-2.52 ± 0.25"}
    ]},
    {"sequence": "ACUGAGCAAUAUUACGGAAU", "values": [
      {"measurement": "self-splicing fitness (ln)", "setting": "30 °C", "value": "-3.39 ± 0.35"},
      {"measurement": "self-splicing fitness (ln)", "setting": "37 °C", "value": "-1.87 ± 0.23"}
    ]},
    {"sequence": "ACAUAGCAAUAUUACGCUAA", "values": [
      {"measurement": "self-splicing fitness (ln)", "setting": "30 °C", "value": "-2.26 ± 0.23"},
      {"measurement": "self-splicing fitness (ln)", "setting": "37 °C", "value": "-0.742 ± 0.34"}
    ]},
    {"sequence": "UCAAAGCAAUAUUACGCCGC", "values": [
      {"measurement": "self-splicing fitness (ln)", "setting": "30 °C", "value": "-3.89 ± 0.39"},
      {"measurement": "self-splicing fitness (ln)", "setting": "37 °C", "value": "-1.67 ± 0.42"}
    ]},
    {"sequence": "UAUUAGCAAUAUUACGGAUG", "values": [
      {"measurement": "self-splicing fitness (ln)", "setting": "30 °C", "value": "-0.629 ± 0.09"},
      {"measurement": "self-splicing fitness (ln)", "setting": "37 °C", "value": "-0.294 ± 0.12"}
    ]},
    {"sequence": "CUGAAGCAAUAUUACGCAUG", "values": [
      {"measurement": "self-splicing fitness (ln)", "setting": "30 °C", "value": "-0.485 ± 0.063"},
      {"measurement": "self-splicing fitness (ln)", "setting": "37 °C", "value": "0.071 ± 0.1"}
    ]},
    {"sequence": "AAACAGCAAUAUUACGAAUG", "values": [
      {"measurement": "self-splicing fitness (ln)", "setting": "30 °C", "value": "-2.81 ± 0.13"},
      {"measurement": "self-splicing fitness (ln)", "setting": "37 °C", "value": "-1.91 ± 0.15"}
    ]},
    {"sequence": "GGUCAGCAAUAUUACGACAA", "values": [
      {"measurement": "self-splicing fitness (ln)", "setting": "30 °C", "value": "-0.264 ± 0.062"},
      {"measurement": "self-splicing fitness (ln)", "setting": "37 °C", "value": "0.179 ± 0.093"}
    ]},
    {"sequence": "UGGGAGCAAUAUUACGCGCA", "values": [
      {"measurement": "self-splicing fitness (ln)", "setting": "30 °C", "value": "-1.66 ± 0.15"},
      {"measurement": "self-splicing fitness (ln)", "setting": "37 °C", "value": "-1.16 ± 0.19"}
    ]},
    {"sequence": "UAGUAGCAAUAUUACGUGAU", "values": [
      {"measurement": "self-splicing fitness (ln)", "setting": "30 °C", "value": "-3.84 ± 0.33"},
      {"measurement": "self-splicing fitness (ln)", "setting": "37 °C", "value": "-2.18 ± 0.28"}
    ]},
    {"sequence": "GCAAAGCAAUAUUACGUACA", "values": [
      {"measurement": "self-splicing fitness (ln)", "setting": "30 °C", "value": "-1.31 ± 0.11"},
      {"measurement": "self-splicing fitness (ln)", "setting": "37 °C", "value": "-0.858 ± 0.13"}
    ]},
    {"sequence": "UGCUAGCAAUAUUACGAGUC", "values": [
      {"measurement": "self-splicing fitness (ln)", "setting": "30 °C", "value": "-3.43 ± 0.26"},
      {"measurement": "self-splicing fitness (ln)", "setting": "37 °C", "value": "-2.5 ± 0.28"}
    ]},
    {"sequence": "AGCGAGCAAUAUUACGGUAA", "values": [
      {"measurement": "self-splicing fitness (ln)", "setting": "30 °C", "value": "-2.45 ± 0.27"},
      {"measurement": "self-splicing fitness (ln)", "setting": "37 °C", "value": "-2.49 ± 0.24"}
    ]},
    {"sequence": "UAUAAGCAAUAUUACGCUUA", "values": [
      {"measurement": "self-splicing fitness (ln)", "setting": "30 °C", "value": "-1.88 ± 0.27"},
      {"measurement": "self-splicing fitness (ln)", "setting": "37 °C", "value": "-0.653 ± 0.2"}
    ]},
    {"sequence": "ACAGAGCAAUAUUACGUUAC", "values": [
      {"measurement": "self-splicing fitness (ln)", "setting": "30 °C", "value": "-3 ± 0.15"},
      {"measurement": "self-splicing fitness (ln)", "setting": "37 °C", "value": "-2.96 ± 0.25"}
    ]},
    {"sequence": "AGUGAGCAAUAUUACGAGGA", "values": [
      {"measurement": "self-splicing fitness (ln)", "setting": "30 °C", "value": "-2.48 ± 0.32"},
      {"measurement": "self-splicing fitness (ln)", "setting": "37 °C", "value": "-3.09 ± 0.35"}
    ]},
    {"sequence": "UAACAGCAAUAUUACGUGAC", "values": [
      {"measurement": "self-splicing fitness (ln)", "setting": "30 °C", "value": "-3.68 ± 0.2"},
      {"measurement": "self-splicing fitness (ln)", "setting": "37 °C", "value": "-2.46 ± 0.17"}
    ]},
    {"sequence": "AUUAAGCAAUAUUACGACAU", "values": [
      {"measurement": "self-splicing fitness (ln)", "setting": "30 °C", "value": "0.191 ± 0.012"},
      {"measurement": "self-splicing fitness (ln)", "setting": "37 °C", "value": "0.193 ± 0.032"}
    ]},
    {"sequence": "GAGGAGCAAUAUUACGGAGU", "values": [
      {"measurement": "self-splicing fitness (ln)", "setting": "37 °C", "value": "-2.57 ± 0.34"}
    ]},
    {"sequence": "UGAGAGCAAUAUUACGUUCU", "values": [
      {"measurement": "self-splicing fitness (ln)", "setting": "30 °C", "value": "-3.3 ± 0.25"},
      {"measurement": "self-splicing fitness (ln)", "setting": "37 °C", "value": "-2.03 ± 0.27"}
    ]},
    {"sequence": "ACCAAGCAAUAUUACGGUGG", "values": [
      {"measurement": "self-splicing fitness (ln)", "setting": "30 °C", "value": "-4.89 ± 0.21"},
      {"measurement": "self-splicing fitness (ln)", "setting": "37 °C", "value": "-2.53 ± 0.14"}
    ]},
    {"sequence": "CGGCAGCAAUAUUACGUGAC", "values": [
      {"measurement": "self-splicing fitness (ln)", "setting": "30 °C", "value": "-3.9 ± 0.13"},
      {"measurement": "self-splicing fitness (ln)", "setting": "37 °C", "value": "-1.22 ± 0.1"}
    ]},
    {"sequence": "GAGCAGCAAUAUUACGGUGU", "values": [
      {"measurement": "self-splicing fitness (ln)", "setting": "30 °C", "value": "-2.84 ± 0.093"},
      {"measurement": "self-splicing fitness (ln)", "setting": "37 °C", "value": "-1.56 ± 0.09"}
    ]},
    {"sequence": "UUCUAGCAAUAUUACGUGUC", "values": [
      {"measurement": "self-splicing fitness (ln)", "setting": "30 °C", "value": "-3.35 ± 0.19"},
      {"measurement": "self-splicing fitness (ln)", "setting": "37 °C", "value": "-3.01 ± 0.21"}
    ]},
    {"sequence": "CCUGAGCAAUAUUACGCGAG", "values": [
      {"measurement": "self-splicing fitness (ln)", "setting": "30 °C", "value": "-4.35 ± 0.42"},
      {"measurement": "self-splicing fitness (ln)", "setting": "37 °C", "value": "-2.63 ± 0.28"}
    ]},
    {"sequence": "UCACAGCAAUAUUACGAGUC", "values": [
      {"measurement": "self-splicing fitness (ln)", "setting": "30 °C", "value": "-2.97 ± 0.15"},
      {"measurement": "self-splicing fitness (ln)", "setting": "37 °C", "value": "-3.01 ± 0.2"}
    ]},
    {"sequence": "CACCAGCAAUAUUACGACAG", "values": [
      {"measurement": "self-splicing fitness (ln)", "setting": "30 °C", "value": "0.251 ± 0.06"},
      {"measurement": "self-splicing fitness (ln)", "setting": "37 °C", "value": "0.634 ± 0.083"}
    ]},
    {"sequence": "ACCGAGCAAUAUUACGUCGU", "values": [
      {"measurement": "self-splicing fitness (ln)", "setting": "30 °C", "value": "-3.09 ± 0.13"},
      {"measurement": "self-splicing fitness (ln)", "setting": "37 °C", "value": "-1.04 ± 0.11"}
    ]},
    {"sequence": "UAAUAGCAAUAUUACGCGAU", "values": [
      {"measurement": "self-splicing fitness (ln)", "setting": "30 °C", "value": "-3.2 ± 0.28"},
      {"measurement": "self-splicing fitness (ln)", "setting": "37 °C", "value": "-1.86 ± 0.24"}
    ]},
    {"sequence": "CGUGAGCAAUAUUACGAGGU", "values": [
      {"measurement": "self-splicing fitness (ln)", "setting": "30 °C", "value": "-0.426 ± 0.29"},
      {"measurement": "self-splicing fitness (ln)", "setting": "37 °C", "value": "-1.35 ± 0.31"}
    ]},
    {"sequence": "AUCAAGCAAUAUUACGUGGG", "values": [
      {"measurement": "self-splicing fitness (ln)", "setting": "30 °C", "value": "-3.29 ± 0.14"},
      {"measurement": "self-splicing fitness (ln)", "setting": "37 °C", "value": "-2.04 ± 0.11"}
    ]},
    {"sequence": "AUCAAGCAAUAUUACGACUA", "values": [
      {"measurement": "self-splicing fitness (ln)", "setting": "30 °C", "value": "-0.634 ± 0.076"},
      {"measurement": "self-splicing fitness (ln)", "setting": "37 °C", "value": "0.132 ± 0.088"}
    ]}
  ]
}
